Data as given in the supplement of paper PMC10567573.

B1: ZNF193 (parent)
chain: QKRYHCKECGKVFSQSAGLIQHQR
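Further: lentivirally expressed fusions sorted by FACS into six bins by GFP to DsRed ratio, PSI derived from sequencing read proportions per bin multiplied by bin number.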

Variants of: B1
Experiment: protein stability index of a GFP-peptide fusion (GPS, HEK-293T) (PSI 1-6); higher = more stable
Conditions: c terminus: a fixed tail appended
With QARYHCKECGKVFSQSAGLIQHQR [K2A] the protein stability index was 2.85.
For QLRYHCKECGKVFSQSAGLIQHQR [K2L], the protein stability index was 2.81.
Work on QIRYHCKECGKVFSQSAGLIQHQR [K2I] yielded a protein stability index of 2.81.
Work on QVRYHCKECGKVFSQSAGLIQHQR [K2V] yielded a protein stability index of 2.58.
Variant QPRYHCKECGKVFSQSAGLIQHQR [K2P] has a protein stability index of 3.07.
For QDRYHCKECGKVFSQSAGLIQHQR [K2D], the protein stability index was 3.31.
In the case of QWRYHCKECGKVFSQSAGLIQHQR [K2W], the protein stability index is reported as 2.17.
With QRRYHCKECGKVFSQSAGLIQHQR [K2R] the protein stability index was 2.76.
In the case of QHRYHCKECGKVFSQSAGLIQHQR [K2H], the protein stability index is reported as 3.06.
Variant QSRYHCKECGKVFSQSAGLIQHQR [K2S] has a protein stability index of 2.48.
Variant QTRYHCKECGKVFSQSAGLIQHQR [K2T] has a protein stability index of 2.24.
For QQRYHCKECGKVFSQSAGLIQHQR [K2Q], the protein stability index was 3.04.
Work on QCRYHCKECGKVFSQSAGLIQHQR [K2C] yielded a protein stability index of 2.39.
With QMRYHCKECGKVFSQSAGLIQHQR [K2M] the protein stability index was 3.1.
QFRYHCKECGKVFSQSAGLIQHQR [K2F] showed a protein stability index of 2.31.
Work on QNRYHCKECGKVFSQSAGLIQHQR [K2N] yielded a protein stability index of 2.86.
QGRYHCKECGKVFSQSAGLIQHQR [K2G] showed a protein stability index of 3.31.
QYRYHCKECGKVFSQSAGLIQHQR [K2Y] showed a protein stability index of 2.6.
QERYHCKECGKVFSQSAGLIQHQR [K2E] gave a protein stability index of 3.08.
With QKWYHCKECGKVFSQSAGLIQHQR [R3W] the protein stability index was 3.52.
For QKQYHCKECGKVFSQSAGLIQHQR [R3Q], the protein stability index was 3.33.
In the case of QKIYHCKECGKVFSQSAGLIQHQR [R3I], the protein stability index is reported as 3.55.
In the case of QKAYHCKECGKVFSQSAGLIQHQR [R3A], the protein stability index is reported as 3.18.
In the case of QKDYHCKECGKVFSQSAGLIQHQR [R3D], the protein stability index is reported as 2.35.
QKEYHCKECGKVFSQSAGLIQHQR [R3E] showed a protein stability index of 3.26.
In the case of QKGYHCKECGKVFSQSAGLIQHQR [R3G], the protein stability index is reported as 2.93.
For QKSYHCKECGKVFSQSAGLIQHQR [R3S], the protein stability index was 3.12.
With QKMYHCKECGKVFSQSAGLIQHQR [R3M] the protein stability index was 3.23.
QKYYHCKECGKVFSQSAGLIQHQR [R3Y] showed a protein stability index of 3.52.
For QKHYHCKECGKVFSQSAGLIQHQR [R3H], the protein stability index was 2.92.
Work on QKLYHCKECGKVFSQSAGLIQHQR [R3L] yielded a protein stability index of 3.58.
QKTYHCKECGKVFSQSAGLIQHQR [R3T] showed a protein stability index of 3.59.
For QKNYHCKECGKVFSQSAGLIQHQR [R3N], the protein stability index was 2.87.
With QKFYHCKECGKVFSQSAGLIQHQR [R3F] the protein stability index was 3.6.
For QKCYHCKECGKVFSQSAGLIQHQR [R3C], the protein stability index was 3.48.
QKVYHCKECGKVFSQSAGLIQHQR [R3V] gave a protein stability index of 3.2.
Variant QKKYHCKECGKVFSQSAGLIQHQR [R3K] has a protein stability index of 3.23.
Variant QKPYHCKECGKVFSQSAGLIQHQR [R3P] has a protein stability index of 2.98.
Variant QKRYHFKECGKVFSQSAGLIQHQR [C6F] has a protein stability index of 2.08.
QKRYHMKECGKVFSQSAGLIQHQR [C6M] gave a protein stability index of 2.75.
For QKRYHAKECGKVFSQSAGLIQHQR [C6A], the protein stability index was 2.63.
Variant QKRYHPKECGKVFSQSAGLIQHQR [C6P] has a protein stability index of 2.18.
For QKRYHQKECGKVFSQSAGLIQHQR [C6Q], the protein stability index was 2.28.
For QKRYHWKECGKVFSQSAGLIQHQR [C6W], the protein stability index was 1.96.
Variant QKRYHGKECGKVFSQSAGLIQHQR [C6G] has a protein stability index of 2.62.
QKRYHHKECGKVFSQSAGLIQHQR [C6H] showed a protein stability index of 2.24.
With QKRYHIKECGKVFSQSAGLIQHQR [C6I] the protein stability index was 2.12.
In the case of QKRYHVKECGKVFSQSAGLIQHQR [C6V], the protein stability index is reported as 2.8.
Variant QKRYHYKECGKVFSQSAGLIQHQR [C6Y] has a protein stability index of 1.73.
QKRYHTKECGKVFSQSAGLIQHQR [C6T] showed a protein stability index of 2.83.
Work on QKRYHNKECGKVFSQSAGLIQHQR [C6N] yielded a protein stability index of 2.74.
In the case of QKRYHKKECGKVFSQSAGLIQHQR [C6K], the protein stability index is reported as 2.69.
In the case of QKRYHSKECGKVFSQSAGLIQHQR [C6S], the protein stability index is reported as 2.88.
QKRYHDKECGKVFSQSAGLIQHQR [C6D] showed a protein stability index of 3.05.
For QKRYHRKECGKVFSQSAGLIQHQR [C6R], the protein stability index was 2.6.
Work on QKRYHLKECGKVFSQSAGLIQHQR [C6L] yielded a protein stability index of 2.31.
QKRYHEKECGKVFSQSAGLIQHQR [C6E] gave a protein stability index of 3.74.
In the case of QKRYHCKECKKVFSQSAGLIQHQR [G10K], the protein stability index is reported as 1.98.
QKRYHCKECHKVFSQSAGLIQHQR [G10H] gave a protein stability index of 1.84.
Variant QKRYHCKECCKVFSQSAGLIQHQR [G10C] has a protein stability index of 1.83.
QKRYHCKECWKVFSQSAGLIQHQR [G10W] gave a protein stability index of 2.02.
QKRYHCKECDKVFSQSAGLIQHQR [G10D] gave a protein stability index of 1.79.
QKRYHCKECEKVFSQSAGLIQHQR [G10E] gave a protein stability index of 2.01.
For QKRYHCKECTKVFSQSAGLIQHQR [G10T], the protein stability index was 1.83.
Work on QKRYHCKECMKVFSQSAGLIQHQR [G10M] yielded a protein stability index of 2.12.
QKRYHCKECLKVFSQSAGLIQHQR [G10L] showed a protein stability index of 1.95.
In the case of QKRYHCKECPKVFSQSAGLIQHQR [G10P], the protein stability index is reported as 2.33.
QKRYHCKECFKVFSQSAGLIQHQR [G10F] gave a protein stability index of 2.03.
In the case of QKRYHCKECRKVFSQSAGLIQHQR [G10R], the protein stability index is reported as 2.
Variant QKRYHCKECVKVFSQSAGLIQHQR [G10V] has a protein stability index of 1.46.
QKRYHCKECYKVFSQSAGLIQHQR [G10Y] gave a protein stability index of 1.67.
QKRYHCKECAKVFSQSAGLIQHQR [G10A] showed a protein stability index of 1.96.
Work on QKRYHCKECQKVFSQSAGLIQHQR [G10Q] yielded a protein stability index of 2.29.
In the case of QKRYHCKECNKVFSQSAGLIQHQR [G10N], the protein stability index is reported as 2.5.
With QKRYHCKECSKVFSQSAGLIQHQR [G10S] the protein stability index was 2.11.
QKRYHCKECIKVFSQSAGLIQHQR [G10I] gave a protein stability index of 1.51.
For QKRYHCKECGDVFSQSAGLIQHQR [K11D], the protein stability index was 1.88.
Work on QKRYHCKECGAVFSQSAGLIQHQR [K11A] yielded a protein stability index of 3.19.
QKRYHCKECGCVFSQSAGLIQHQR [K11C] gave a protein stability index of 2.3.
QKRYHCKEAGKVFSQSAGLIQHQR [C9A] gave a protein stability index of 3.45.
QKRYHCKEIGKVFSQSAGLIQHQR [C9I] showed a protein stability index of 2.83.
QKRYHCKEWGKVFSQSAGLIQHQR [C9W] showed a protein stability index of 2.58.
With QKRYHCKEKGKVFSQSAGLIQHQR [C9K] the protein stability index was 3.64.
With QKRYHCKERGKVFSQSAGLIQHQR [C9R] the protein stability index was 3.38.
Variant QKRYHCKEEGKVFSQSAGLIQHQR [C9E] has a protein stability index of 3.64.
For QKRYHCKEGGKVFSQSAGLIQHQR [C9G], the protein stability index was 3.2.
Work on QKRYHCKETGKVFSQSAGLIQHQR [C9T] yielded a protein stability index of 3.27.
With QKRYHCKENGKVFSQSAGLIQHQR [C9N] the protein stability index was 3.17.
Variant QKRYHCKESGKVFSQSAGLIQHQR [C9S] has a protein stability index of 3.11.
For QKRYHCKELGKVFSQSAGLIQHQR [C9L], the protein stability index was 2.52.
With QKRYHCKEDGKVFSQSAGLIQHQR [C9D] the protein stability index was 3.97.
QKRYHCKEYGKVFSQSAGLIQHQR [C9Y] gave a protein stability index of 2.7.
In the case of QKRYHCKEVGKVFSQSAGLIQHQR [C9V], the protein stability index is reported as 3.07.
With QKRYHCKEPGKVFSQSAGLIQHQR [C9P] the protein stability index was 3.04.
